Data as given in US9371519B2, “Complex type sugar chain hydrolase” (National Institute of Advanced Industrial Science and …, priority 2011, dated 2016).

B1: Endo-Cp: endo-β-N-acetylglucosaminidase from Candida parapolymorpha DL-1 ATCC26012, amino acid sequence SEQ ID NO. 5, 745 amino acids (protein, listed as Candida parapolymorpha)
chain: MPRNTAKHSSLPQTNLPLSSLESSFFDSLDELANWERRIHEKSFELDELNKPTEKLAHYTRARQQSTSEDVKLLVCHDLKGGYQVNEDEDPLGYFPHPDGQHYFLQYPQLVDKFVYFSHHRVSIPPVSWINVCHRNAIKCLGTVIFEGNTYRDFEEADKLLTKQDGEYVFVRCLVALVEYFQFDGYLFNIETRFSNTRIASLLEPFLEQLRAELHVRNPSTELIWYDSYIYPENRVLYKNGVTEANYNFFSCCDSFFTNYWWNVKHLQDNIKNVGVLGSRLKVYAGYDVWGRGTMIGKGGYDSALACQMIKKYRSNVALFAPAWTYEYLARKDFTQNDTRFWIGLFDGESSMATTFKPYSSPLYKINDSNFVFYTNFGSGEGCAFYECGEKVYRDNWVNGSLQMEIPYAIHTRNKNGIQWTLSKEDSFHGGSCVEIKYNEVVDDKGYQVFNNQTINSFSLFSFVQDCSFPTVNVKLTYKLNHKTKSFFKLKIGYYIERRYRTVQKVRSGCLVVPLLSTNDQWFTIEEPFHVSLQNSHEFIVLDSATIFYEETEDPFMRAHVVEDQSTSSVIDNEEYEKLMNSEIYFDDEDEDWILVPSDISMESTDNGGRENHTWKVISNQIRKKHPKSHPSTSPVLKLGELAIINANDYPSDSFFKLMPVNSIDVRRWEGKILLIWKTNQDSVLYHLIFVDDVFQGISLVSKFVFEDQAVDEKSFKTKSGGSTKVRIDTVNRLGILVKGTDM
B2: Endo-Om: endo-β-N-acetylglucosaminidase from methylotrophic yeast Ogataea minuta IFO10746, amino acid sequence SEQ ID NO. 1, 772 amino acids (protein, listed as Ogataea minuta)
chain: MAQSQLLGGAVRPVFFDKLEELRRWHTQSANLSRESELDSLNVATEPFSSYERAQTGSGSRSSEPVPGDKEDPPIKLMVCHDFKGGYQDYEDAQPLGYFPHPTGSRYFLQYPQLIDQFVYFSHHRVTVPPVNWINFCHRNGIKCFGTVIFEGNASKDFEELDRLVSRDEKGDFVFVDALIKLAAHYGFDGYLLNIETTFSNTKIAADLEPFAEQLKSGLHCLDSKNELIWYDSYVFPANKVSYTNGVTESNYNFFSLSDAFFSNYWWNIKNLQENIKNVGVLGVQKKIYVGYDVWGRGTLVGKGGFDSSLACKMIAKFKSNVALFAPAWTYESLGPKDFNQNDARFWIGLFENESSISSTVPPHSSAVYKINESSFIFYTNFSSGEGNRFFSKGSEVYRKNWVNGSLQFDLPIDLHRKDKNGLQWALDKSDAFHGGACLEIKYSEIKDENGYQIFNNQMVSDFTLFNFTKECHFPTVNVKVTYKLNHKTKSTFKIKIKYIIERRFRSVQTVRTGYLTIPLLSTSGKWFTVEESFQINLQTSHEYIVLESAHVTYDEDRSADSFFRSYIVEDSAITSVIDNEEYEKLINSEIYNDDEDEDWILVPSDVSISSSESQSNDSKTQYLGRKLFGNKSTPKTRTLEGTAPLLRIGEFAIISANNYPSSNFLAVTSVKSIESSRLEGDSLVLLNWQVGEGHQKGVCYYIIYVNGAVVGLSVAPKFIYQDTELASENSASARSNYKKSGLGSSSDRKSKVRVDSVDKLGNVFTGSEVWV

Experiment: Enzyme activity measurement with NGA2-Asn-Fmoc by HPLC (specific activity, Km, Vmax)
Assay type: biochemical
Settings: for Specific activity: 1 mM NGA2-Asn-Fmoc as substrate
Experimental: The enzyme activity was measured as follows. A reaction solution (total volume: 10 μl) containing 100 mM of a sodium acetate buffer (pH 5.3) at the final concentration, 0.5 M NaCl, 10 μM of a Fmoc-labeled biantennary complex type sugar chain (NGA2-Asn-Fmoc), […], and heated at 95° C. for 5 minutes, thereby stopping the enzyme reaction. The reaction solution was subjected to HPLC, and the enzymatic activity was calculated from the peak area ratio between the NGA2-Asn-Fmoc as the substrate and its hydrolysate. The column was Asahipak NH2P-50 4E (4.6.250 mm, Shodex), and the solvents were acetonitrile (solvent A) and 200 mM of TEAA (pH 7.0, GLEN RESEARCH: solvent B). Isocratic elution was carried out at a flow rate of 1.0 ml/min, and the solvent B: 43%, and detection was carried out using a fluorescence detector (excitation wavelength 265 nm, and fluorescence wavelength 315 nm). The activity hydrolyzing […] of NGA2-Asn-Fmoc in 1 minute under the above-described reaction conditions was defined as 1 Unit of the enzymatic activity of Endo-Om.
The properties of Endo-Om were studied using a purified enzyme solution. According to the method described in Example 4, the Endo-Om crude enzyme solution prepared from 100 ml culture was substituted with an equilibration buffer (20 mM sodium phosphate buffer (pH 7.4), 0.5 M NaCl, 0.5 mM PMSF, 50 mM imidazole) by dialysis. The Endo-Om crude enzyme solution after dialysis was subjected to a HisTrap HP column (GE Healthcare), washed with the equilibration buffer, and eluted stepwise by an equilibration buffer containing 50 mM, 100 mM, and 200 mM of imidazole, thereby eluting the protein. The fraction containing Endo-Om eluted from the column was subjected to ultrafiltration concentration using Amicon Ultra (50,000 NMWL, Millipore), further dialyzed with 20 mM of sodium phosphate buffer (pH 7.4) and 0.5 M of NaCl, and glycerol was added to make the final concentration 10%, thereby making an Endo-Om purified enzyme solution. According to the method described in Example 4, the activity of the Endo-Om purified enzyme solution when the substrate concentration was 1 mM was measured, and the specific activity was calculated. In addition, activity measurement was carried out using NGA2-Asn-Fmoc at different concentrations as the substrates, and Km and Vmax were calculated. For comparison, the specific activity, Km, and Vmax of the commercially available Endo-M were calculated by the same method. The optimal pH of Endo-M is 6.0 (Non Patent Literature 6), so that the pH of the sodium acetate buffer was made 6.0 when measuring the activity of Endo-M.
The enzyme activity was measured as follows. A reaction solution (total volume: 10 μl) containing 100 mM of a sodium acetate buffer (pH 5.3) at the final concentration, 0.5 M NaCl, 10 μM of a Fmoc-labeled biantennary complex type sugar chain (NGA2-Asn-Fmoc), and Endo-Cp was incubated at 30° C. for 3 hours, and heated at 95° C. for 5 minutes, thereby stopping the enzyme reaction. The reaction solution was subjected to HPLC, and the enzymatic activity was calculated from the peak area ratio between the NGA2-Asn-Fmoc as the substrate and its hydrolysate. […] Isocratic elution was carried out at a flow rate of 1.0 ml/min, and the solvent B: 43%, and detection was carried out using a fluorescence detector (excitation wavelength 265 nm, and fluorescence wavelength 315 nm). […]
The enzyme activity was measured as follows. […]

Row | Molecule | Specific activity of partially purified enzyme solution (10 μM NGA2-Asn-Fmoc as substrate, pH 5.3, 30° C.) [μUnit/mg] | Specific activity (purified Endo-Om) [µmol/min/mg] | Specific activity (purified Endo-Om (pH 5.3), commercially available Endo-M (pH 6.0)) [µmol/min/mg] | Km relative to the Km of Endo-M (NGA2-Asn-Fmoc) [times] | Vmax relative to the Vmax of Endo-M (NGA2-Asn-Fmoc) [times]
1 | B1 | 120 |  |  |  | 
2 | B2 |  | 0.8 | 0.80 | 31 | 55
